Reference: US20190382488A1 (IMAGINAB, published 2019)

How the values were obtained:
[1] = biological target: T1, recombinant human CD8 (rhCD8) (human, UniProt P01732 22-182); assay: SPR (summary table)
T1 construct: Soluble purified recombinant protein; also called purified recombinant human CD8 protein; soluble CD8
From the text: (§1) Surface plasma resonance (SPR) was used to determine the binding affinity for all the IAb_Mb_CD8 variants to recombinant human CD8 (Table 8.0). The minibody protein in the supernatant was captured on to the BIAcore chip using an anti-human IgG (Fc-specific) antibody. The amount of minibody captured on the chip was normalized to enable a direct comparison of binding affinity between the variants as a kinetic “scouting” experiment to rank affinities. The rhCD8 protein was passed over the captured minibody protein to measure binding.
(§2) Table 8.0 summarizes the measured association (ka), dissociation (kd), and kD constants for the IAb_Mb_CD8 variants binding to recombinant hCD8. The variants were captured on a BIAcore chip using anti-human Fc-specific IgG antibody.

cell-surface human CD8 [2] = biological target: T2, cell-surface human CD8 (human, UniProt P01732 22-235); assay: flow cytometry, HPB-ALL cells
T2 construct: the cell is named under assay; also called cellular human CD8; CD8 on PC3-CD8 cells
Method: (§3) Flow cytometry analysis of minibodies binding to cell-surface human CD8 on HPB-ALL cells was performed. Cells were stained with respective concentrations of minibody, washed, and then stained with a secondary anti-human IgG (Fc-specific) APC-conjugated antibody. Analysis was performed with 10,000 events/point in triplicate for each concentration. The results are shown in graph format in FIG. 29A. The graph presents the normalized mean fluorescence intensity (MFI) vs. the log of the concentration (nM). Error bars represent the standard error. The data indicates an EC₅₀ of 0.15 nM and 0.19 nM.
as §3, with “analysis of IgG2 minibodies binding” for “analysis of minibodies binding”, “in FIG. 29E. The graph” for “in FIG. 29A. The graph”, “EC₅₀ of 0.1 nM, 0.13 nM, and 0.08” for “EC₅₀ of 0.15 nM and 0.19”, “nM, and 0.08 nM.” for “nM and 0.19 nM.”

cell-surface human CD8 [3] = biological target: T2, cell-surface human CD8; assay: flow cytometry, primary human CD8+ T cells
Method: as §3, with “primary human CD8+ T” for “HPB-ALL”, “29B.” for “29A.”, “0.1” for “0.15”, “0.26” for “0.19”

cell-surface human CD8 [4] = biological target: T2, cell-surface human CD8; assay: flow cytometry, PC3 cells overexpressing CD8
cell-surface human CD8 [5] = biological target: T2, cell-surface human CD8; assay: flow cytometry on HPB-ALL cells, anti-human IgG (Fc-specific)-APC
Method: as §3

cell-surface human CD8 [6] = biological target: T2, cell-surface human CD8; assay: as above; remark: listed apart in the source
cell-surface human CD8 [7] = biological target: T2, cell-surface human CD8; assay: as above; remark: listed apart in the source
Method: as §3, with “analysis of IgG2 minibodies binding” for “analysis of minibodies binding”, “in FIG. 29E. The graph” for “in FIG. 29A. The graph”, “EC₅₀ of 0.1 nM, 0.13 nM, and 0.08” for “EC₅₀ of 0.15 nM and 0.19”, “nM, and 0.08 nM.” for “nM and 0.19 nM.”

[8] = biological target: T1, recombinant human CD8 (rhCD8); assay: SPR (BIAcore), minibody captured via anti-human IgG Fc, hCD8 analyte at 50 nM
From the text: as §1, §2

cell-surface human CD8 [9] = biological target: T2, cell-surface human CD8; assay: flow cytometry on primary human CD8+ T cells, anti-human IgG (Fc-specific)-APC
Method: as §3, with “primary human CD8+ T” for “HPB-ALL”, “29B.” for “29A.”, “0.1” for “0.15”, “0.26” for “0.19”

cell-surface human CD8 [10] = biological target: T2, cell-surface human CD8; assay: flow cytometry on PC3 cells overexpressing CD8, anti-human IgG (Fc-specific)-APC
Method: Flow cytometry analysis of minibody (+/−lysine conjugation to Desferoxamine) binding to PC3 cells overexpressing CD8 was performed. Cells were stained with respective concentrations of minibody, washed, and then stained with a secondary anti-human IgG (Fc-specific) APC-conjugated antibody. Analysis was performed with 10,000 events/point in triplicate for each concentration. The results are shown in graph format in FIG. 29D. The graph presents the mean fluorescence intensity (MFI) vs. the log of the concentration (nM). Error bars represent the standard error. The data indicates an EC₅₀ of 0.64 nM and 0.83 nM.

[11] = biological target: T1, recombinant human CD8 (rhCD8); assay: SPR (summary table); Table 9 summary
cell-surface human CD8 [12] = biological target: T2, cell-surface human CD8; assay: flow cytometry, HPB-ALL cells; remark: listed apart in the source
Method: as §3, with “the OKT8 mAbconstruct” for “minibodies”, “antibody,” for “minibody,”, “anti-mouse” for “anti-human”, “28.” for “29A.”, “the” for “the normalized”, “0.22” for “0.15 nM and 0.19”

cell-surface human CD8 [13] = biological target: T2, cell-surface human CD8; assay: flow cytometry, HPB-ALL cells; Table 9 summary, HPB-ALL cells
Method: as §3, with “the OKT8 mAbconstruct” for “minibodies”, “antibody,” for “minibody,”, “anti-mouse” for “anti-human”, “28.” for “29A.”, “the” for “the normalized”, “0.22” for “0.15 nM and 0.19”

[14] = biological target: T1, recombinant human CD8 (rhCD8); assay: SPR (BIAcore), antibody as captured ligand, hCD8 analyte at 50 nM
cell-surface human CD8 [15] = biological target: T2, cell-surface human CD8; assay: flow cytometry on HPB-ALL cells, anti-mouse IgG (Fc-specific)-APC
Method: as §3, with “the OKT8 mAbconstruct” for “minibodies”, “antibody,” for “minibody,”, “anti-mouse” for “anti-human”, “28.” for “29A.”, “the” for “the normalized”, “0.22” for “0.15 nM and 0.19”

[16] = biological target: T1, recombinant human CD8 (rhCD8); assay: ELISA on plate-coated rhCD8, transfection supernatant, HRP goat anti-human IgG (Fc-specific), TMB, absorbance 405 nm
Method: 96 well plates were coated with rhCD8 antigen and incubated with supernatants obtained from the transient transfection. Binding was detected with HRP-conjugated goat anti-human (Fc-specific) IgG and TMB substrate. The absorbance measured at 405 nm. Dilutions were done in triplicate. Data is shown as mean of relative absorbance.

T2 sequence (P01732 22-235 limits assumed): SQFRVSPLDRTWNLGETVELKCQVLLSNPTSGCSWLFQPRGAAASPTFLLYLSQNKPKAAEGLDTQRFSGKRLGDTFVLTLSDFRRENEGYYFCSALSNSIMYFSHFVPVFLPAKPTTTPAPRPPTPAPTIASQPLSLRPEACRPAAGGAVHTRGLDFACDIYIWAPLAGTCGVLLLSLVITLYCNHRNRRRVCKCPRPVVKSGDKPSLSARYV
T1 sequence (P01732 22-182 limits assumed): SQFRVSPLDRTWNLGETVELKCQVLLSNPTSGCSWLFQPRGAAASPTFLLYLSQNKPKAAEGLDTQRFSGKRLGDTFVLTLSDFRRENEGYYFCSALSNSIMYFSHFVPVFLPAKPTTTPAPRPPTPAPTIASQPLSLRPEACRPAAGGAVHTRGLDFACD

B1: IAb_Mb1b_CD8 (other)
chain: DVQITQSPSSLSASVGDRVTITCRTSRSISQYLAWYQQKPGKVPKLLIYSGSTLQSGVPSRFSGSGSGTDFTLTISSLQPEDVATYYCQQHNENPLTFGGGTKVEIKGSTSGGGSGGGSGGGGSSEVQLVESGGGLVQPGGSLRLSCAASGFNIKDTYIHFVRQAPGKGLEWIGRIDPANDNTLYASKFQGKATISADTSKNTAYLQMNSLRAEDTAVYYCGRGYGYYVFDHWGQGTLVTVSSEPKSCDKTHTCPPCGGGSSGGGSGGQPREPQVYTLPPSRDELTKNQVSLTCLVKGFYPSDIAVEWESNGQPENNYKTTPPVLDSDGSFFLYSKLTVDKSRWQQGNVFSCSVMHEALHNHYTQKSLSLSPGK
notes: also called IAb M1b CD8
- Kd [1]: 1.9 nM
- EC50 (cell-surface human CD8 [2]): 0.1 nM
- EC50 (cell-surface human CD8 [3]): 0.1 nM
- EC50 (cell-surface human CD8 [4]): 0.6 nM
- EC50 (cell-surface human CD8 [5]): 0.15 nM
- EC50 (cell-surface human CD8 [6]): 0.13 nM
- EC50 (cell-surface human CD8 [7]): 0.1 nM
- Ka [8]: 5.4e+08 M⁻¹
- Kd [8]: 1.9 nM
- koff [8]: 0.0012 s⁻¹
- kon [8]: 640000 M⁻¹ s⁻¹
- EC50 (cell-surface human CD8 [9]): 0.1 nM
- EC50 (read off the curve) (cell-surface human CD8 [9]): ~0.1 nM
- EC50 (cell-surface human CD8 [10]): 0.64 nM
- EC50 (read off the curve) (cell-surface human CD8 [10]): ~0.7 nM

B2: IAb_M1b_CD8-Df (other)
chain: DVQITQSPSSLSASVGDRVTITCRTSRSISQYLAWYQQKPGKVPKLLIYSGSTLQSGVPSRFSGSGSGTDFTLTISSLQPEDVATYYCQQHNENPLTFGGGTKVEIKGSTSGGGSGGGSGGGGSSEVQLVESGGGLVQPGGSLRLSCAASGFNIKDTYIHFVRQAPGKGLEWIGRIDPANDNTLYASKFQGKATISADTSKNTAYLQMNSLRAEDTAVYYCGRGYGYYVFDHWGQGTLVTVSSEPKSCDKTHTCPPCGGGSSGGGSGGQPREPQVYTLPPSRDELTKNQVSLTCLVKGFYPSDIAVEWESNGQPENNYKTTPPVLDSDGSFFLYSKLTVDKSRWQQGNVFSCSVMHEALHNHYTQKSLSLSPGK
modifications: Desferoxamine (Df) conjugated to lysine residues
notes: also called Df-labeled minibody
- EC50 (cell-surface human CD8 [6]): 0.12 nM
- EC50 (cell-surface human CD8 [10]): 0.83 nM
- EC50 (read off the curve) (cell-surface human CD8 [10]): ~0.9 nM

B3: IAb_Mb2b_CD8 (other)
chain: EVQLVESGGGLVQPGGSLRLSCAASGFNIKDTYIHFVRQAPGKGLEWIGRIDPANDNTLYASKFQGKATISADTSKNTAYLQMNSLRAEDTAVYYCGRGYGYYVFDHWGQGTLVTVSSGSTSGGGSGGGSGGGGSSDVQITQSPSSLSASVGDRVTITCRTSRSISQYLAWYQQKPGKVPKLLIYSGSTLQSGVPSRFSGSGSGTDFTLTISSLQPEDVATYYCQQHNENPLTFGGGTKVEIKEPKSCDKTHTCPPCGGGSSGGGSGGQPREPQVYTLPPSRDELTKNQVSLTCLVKGFYPSDIAVEWESNGQPENNYKTTPPVLDSDGSFFLYSKLTVDKSRWQQGNVFSCSVMHEALHNHYTQKSLSLSPGK
notes: also called IAb M2b CD8
- EC50 (cell-surface human CD8 [2]): 0.19 nM
- Kd [11]: 3.6 nM
- EC50 (cell-surface human CD8 [3]): 0.26 nM
- EC50 (cell-surface human CD8 [5]): 0.19 nM
- Ka [8]: 2.6e+08 M⁻¹
- Kd [8]: 3.9 nM
- koff [8]: 0.0021 s⁻¹
- kon [8]: 540000 M⁻¹ s⁻¹
- EC50 (cell-surface human CD8 [9]): 0.26 nM
- EC50 (read off the curve) (cell-surface human CD8 [9]): ~0.3 nM

B4: OKT8 mAb (antibody, V domains shown)
VH: EVQLQQSGAELVKPGASVKLSCTASGFNIKDTYIHFVRQRPEQGLEWIGRIDPANDNTLYASKFQGKATITADTSSNTAYMHLCSLTSGDTAVYYCGRGYGYYVFDHWGQGTTLTVSS
VL: DVQINQSPSFLAASPGETITINCRTSRSISQYLAWYQEKPGKTNKLLIYSGSTLQSGIPSRFSGSGSGTDFTLTISGLEPEDFAMYYCQQHNENPLTFGAGTKLELK
notes: Parental murine monoclonal antibody (detected with anti-mouse IgG Fc); also called parental OKT8 antibody; parental OKT8
- Kd [1]: 1.8 nM
- EC50 (cell-surface human CD8 [12]): 0.22 nM
- EC50 (cell-surface human CD8 [13]): 0.33 nM
- Ka [14]: 5.5e+08 M⁻¹
- Kd [14]: 1.8 nM
- koff [14]: 0.001 s⁻¹
- kon [14]: 560000 M⁻¹ s⁻¹
- EC50 (cell-surface human CD8 [15]): 0.33 nM
- EC50 (read off the curve) (cell-surface human CD8 [15]): ~0.3 nM

B5: IAb_Mb1c_CD8 (other)
chain: DVQITQSPSSLSASVGDRVTITCRTSRSISQYLAWYQQKPGKVPKLLIYSGSTLQSGVPSRFSGSGSGTDFTLTISSLQPEDVATYYCQQHNENPLTFGGGTKVEIKGSTSGGGSGGGSGGGGSSQVQLVQSGAEVKKPGATVKISCKVSGFNIKDTYIHFVQQAPGKGLEWIGRIDPANDNTLYASKFQGKATITADTSTDTAYMELSSLRSGDTAVYYCGRGYGYYVFDHWGQGTLVTVSSEPKSCDKTHTCPPCGGGSSGGGSGGQPREPQVYTLPPSRDELTKNQVSLTCLVKGFYPSDIAVEWESNGQPENNYKTTPPVLDSDGSFFLYSKLTVDKSRWQQGNVFSCSVMHEALHNHYTQKSLSLSPGK
notes: also called variant 1c
- Ka [8]: 4e+08 M⁻¹
- Kd [8]: 2.5 nM
- koff [8]: 0.0018 s⁻¹
- kon [8]: 700000 M⁻¹ s⁻¹
- EC50 (read off the curve) [16]: ~0.02 µg/mL
